Our source for the amount of protein for full IFN neutralization, against B18 values is patent EP4335864A1.

The assay addresses recombinant murine IFN-α subtype A (murine). Briefly: cell-based or functional assay.

recombinant murine IFN-α subtype A (murine), sequence (P01573 24-190): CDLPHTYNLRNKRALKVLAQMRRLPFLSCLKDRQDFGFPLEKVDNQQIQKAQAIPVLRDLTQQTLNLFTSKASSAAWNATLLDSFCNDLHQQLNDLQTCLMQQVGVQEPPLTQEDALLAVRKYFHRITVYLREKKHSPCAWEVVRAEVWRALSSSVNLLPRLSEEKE

With “D3 immunoglobulin-like domain of vaccinia virus B18 protein, 6xHis tagged, expressed in bacteria (from UniProt P21077 254-353) (receptor)”, the amount of protein for full IFN neutralization, against B18 is 1.
